Assay results from patent US20230392126A1, “TISSUE ORGANOIDS” (priority 2016, published 2023).

Legend:
[1] = test system: epidermal progenitor cells; test: Suicide gene-induced cell death in epidermal progenitor cells upon prodrug treatment; format: cell-based; conditions: ganciclovir and 5-fluorocytosine, respectively; data not shown
Excerpt: To test this possibility, a Rosa26 targeting vector encoding phenylalanine ammonia lyase (PAL) (SEQ ID NO: 51) together with inducible “suicide” genes HSV-TK (Herpes Simplex Virus Thymidine Kinase) (SEQ ID NO: 52) and yCD (yeast cytosine deaminase) (SEQ ID NO: 53) was used for epidermal progenitor cell transfection.

[2] = mGLP1 expression in blood/plasma of grafted mice fed dox food; format: in vivo, mouse
Procedure: The epidermal progenitor cells were isolated from newborn pups of CD1 or C57BL/6J mice. […] Targeted clones were selected in the medium containing puromycin, and correct incorporation into the Rosa26 locus was confirmed by PCR and southern blots (FIG. 25B). Mouse skin substitute was prepared by seeding the targeted cells to the acellularized newborn dermis and differentiation upon exposure to the air/liquid interphase and the resultant tissues were transplanted to CD1 or C57BL/6J mice (GLP1).
Expression of mGLP1 in GLP1 mice was stable for up to 4 months in the presence of dox (FIG. 25D).
There was a dose-dependent release of GLP1 in plasma (not shown). Expression of mGLP1 in mGLP1 mice was stable for up to 4 months in the presence of dox (FIG. 25D).

[3] = Ethanol-induced CPP in GLP1 and GWT mice; format: in vivo, mouse; conditions: 2 g/kg ethanol i.p., dox food, vs mock grafted (GWT)
Excerpt: FIG. 26. mGLP1 expression on ethanol-induced CPP. […] Following 2 free explorations (Pre-test) on day 1, separate groups of GLP1 and GWT mice (n=9 each) received alternative ethanol (2 g/kg) and saline i.p. injections twice daily for the next 4 days, as previously described (Chen et al., Dopamine D1 and D3 receptors are differentially involved in cue-elicited cocaine seeking. J. Neurochem. 114, 530-541 (2010); Kong et al., Activation of dopamine D3 receptors inhibits reward-related learning induced by cocaine. Neurosci. 176, 152-161 (2011)). CPP expression was tested on day 6. Results represent mean±SEM time spent on the drug-paired side minus the saline-paired side. […] F value was calculated and Newman-Keuls post-hoc test was performed (Chen et al., 2010; Kong et al., 2011). […]
(§1) Following 2 free explorations (Pre-test) on day 1, separate groups of GLP1 and GWT mice (n=9 each) received alternative ethanol (2 g/kg) and saline i.p. injections twice daily for the next 4 days, as previously described (Chen et al., Dopamine D1 and D3 receptors are differentially involved in cue-elicited cocaine seeking. J. Neurochem. 114, 530-541 (2010); Kong et al., Activation of dopamine D3 receptors inhibits reward-related learning induced by cocaine. Neurosci. 176, 152-161 (2011)). […] F value was calculated and Newman-Keuls post-hoc test was performed (Chen et al., 2010; Kong et al., 2011). […]

[4] = Nicotine-induced CPP in GLP1 and GWT mice; format: in vivo, mouse; conditions: 0.4 mg/kg nicotine i.p., dox food, vs GWT
Procedure: FIG. 29 mGLP1 expression on nicotine-induced CPP. […] Following 2 free explorations (Pre-test) on day 1, separate groups of GLP1 and GWT mice (n=7 each) received alternative nicotine (0.4 mg/kg) and saline i.p. injections twice daily for the next 4 days, as previously described (Chen et al., 2010; Kong et al., 2011). CPP expression was tested on day 6. Results represent mean±SEM time spent on the drug-paired side minus the saline-paired side. Repeated-measures ANOVA with test days as the within group factor and status of grafting as the between-subject factor were used (Chen et al., 2010; Kong et al., 2011). F value was calculated and Newman-Keuls post-hoc test was performed (Chen et al., 2010; Kong et al., 2011). GLP1 and WT mice were on dox food for the entire duration.
as §1, with “mGLP1” for “GLP1”, “(n=7” for “mice (n=9”, “nicotine (0.4 mg/kg)” for “ethanol (2 g/kg)”

[5] = Cocaine hydrolysis activity in vitro (clearance assay with conditioned medium)

B1: yCD: inducible suicide gene, yeast cytosine deaminase (SEQ ID NO: 53), prodrug 5-fluorocytosine (protein)
chain: MVTGGMASKWDQKGMDIAYEEAALGYKEGGVPIGGCLINNKDGSVLGRGHNMRFQKGSATLHGEISTLENCGRLEGKVYKDTTLYTTLSPCDMCTGAIIMYGIPRCVVGENVNFKSKGEKYLQTRGHEVVVVDDERCKKIMKQFIDERPQDWFEDIGE
modifications: misc_feature 1..474 yCD
- cell death upon prodrug treatment [1]: efficiently induced cell death upon treatment with prodrugs

B2: mGLP1: Gly8-mutant mGLP1 and mouse IgG-Fc fragment fusion protein (SEQ ID NO: 45), dox-dependent promoter, from skin grafts (protein)
chain: MYRMQLLSCIALSLALVTNSHGEGTFTSDVSSYLEGQAAKEFIAWLVKGRGRSGCKPCICTVPEVSSVFIFPPKPKDVLTITLTPKVTCVVVDISKDDPEVQFSWFVDDVEVHTAQTQPREEQFNSTFRSVSELPIMHQDWLNGKEFKCRVNSAAFPAPIEKTISKTKGRPKAPQVYTIPPPKEQMAKDKVSLTCMITDFFPEDITVEWQWNGQPAENYKNTQPIMDTDGSYFVYSKLNVQKSNWEAGNTFTCSVLHEGLHNHHTEKSLSHSPGK
modifications: mGLP-1 (GLY8 mutant with IgG-Fc fusion)
- time to significantly enhanced levels of mGLP1 in the blood ([2]; dox food): ≤ 3 days
- duration of stable mGLP1 expression ([2]; in the presence of dox): up to 4 months
- release of mGLP1 in plasma vs dox dose ([2]; not shown): dose-dependent release of mGLP1 in plasma
- ethanol-induced CPP [3]: attenuated ethanol-induced CPP
- nicotine-induced CPP [4]: attenuated nicotine-induced CPP

B3: mBChE: mouse BChE with similar point mutations (SEQ ID NO: 43) (protein)
chain: MQTQHTKVTQTHFLLWILLLCMPFGKSHTEEDFIITTKTGRVRGLSMPVLGGTVTAFLGIPYAQPPLGSLRFKKPQPLNKWPDIHNATQYANSCYQNIDQAFPGFQGSEMWNPNTNLSEDCLYLNVWIPVPKPKNATVMVWIYGGGFQTGTSSLPVYDGKFLARVERVIVVSMNYRVGALGFLAFPGNPDAPGNMGLFDQQLALQWVQRNIAAFGGNPKSITIFGESSGAASVSLHLLCPQSYPLFTRAILESGSANAPWAVKHPEEARNRTLTLAKFTGCSKENEMEMIKCLRSKDPQEILRNERFVLPSDSALGINFGPTVDGDFLTDMPHTLLQLGKVKKAQILVGVNKDEGTWFLVGGAPGFSKDNDSLITRKEFQEGLNMYFPGVSRLGKEAVLFYYVDWLGEQSPEVYRDALDDVIGDYNIICPALEFTKKFAELENNAFFYFFEHRSSKLPWPEWMGVMHGYEIEFVFGLPLGRRVNYTRAEEIFSRSIMKTWANFAKYGHPNGTQGNSTMWPVFTSTEQKYLTLNTEKSKIYSKLRAPQCQFWRLFFPKVLEMTGDIDETEQEWKAGFHRWSNYMMDWQNQFNDYTSKKESCTAL
modifications: Mouse mutant BChE
- cocaine hydrolysis activity of conditioned medium [5]: only residual activity in cocaine hydrolysis
